This is an account of results in patent publication US20130059773A1 (published 2013).

For this assay, the target named is T1, Proliferating Cell Nuclear Antigen (PCNA), wild type, cellular (cytosolic PCNA of human neutrophils) (human, UniProt P12004 1-261).
T1 construct: Endogenous protein in human neutrophil cytosol in the co-immunoprecipitations; Expressed from pcDNA3-PCNA in PLB985 cells in the caspase-9 activity row; also called cytoplasmic PCNA; PLB985-PCNA (overexpressed form)
Kind of assay: co-immunoprecipitation from neutrophil cytosol, western blot. In general terms: A western blot detects proteins with antibodies after separation by electrophoresis.

T1 sequence (P12004 whole entry): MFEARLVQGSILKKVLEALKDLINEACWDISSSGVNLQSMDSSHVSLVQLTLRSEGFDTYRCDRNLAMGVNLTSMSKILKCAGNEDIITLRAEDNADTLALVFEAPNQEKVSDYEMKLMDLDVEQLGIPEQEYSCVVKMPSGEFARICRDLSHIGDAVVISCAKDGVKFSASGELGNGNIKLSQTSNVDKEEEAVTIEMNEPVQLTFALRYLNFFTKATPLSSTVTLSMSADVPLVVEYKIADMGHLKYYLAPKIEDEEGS
Protocol: Western blot analysis and co-immunoprecipitation experiments. […] Cytosol (500 mg) was mixed with 50 ml of protein G and Ab5 pAb and incubated for 30 min at 4° C. under shaking. The sample was loaded onto a column containing Sepharose-coated magnetic beads (Milteny), washed with a stringent washing buffer (50 mM Tris, 500 mM NaCl, 1% NP-40, 0.5% Triton X-100). The column was washed twice with this buffer, twice with the same buffer except that the NaCl was 300 mM and, finally, 5 times with a hyposaline buffer (20 mM Tris pH 7.5). The sample was eluted from the column with 30 ml 5× sample buffer and analyzed by Western blotting using different mAb to potential partners.

B1: Bid (other, human, UniProt P55957 1-195, looked up)
chain: MDCEVNNGSSLRDECITNLLVFGFLQSCSDNSFRRELDALGHELPVLAPQWEGYDELQTDGNRSSHSRLGRIEADSESQEDIIRNIARHLAQVGDSMDRSIPPGLVNGLALQLRNTSRSEEDRNRDLATALEQLLQAYPRDMEKEKTMLVLALLLAKKVASHTPSLLRDVFHTTVNFINQNLRTYVRSLARNGMD
As for B1, the binding result is given as “no binding”.
